Measured values reported in patent publication US20100261660A1 (published 2010).

Key:
[1] = biological target: T1, Soluble CD28-Ig (extracellular domain of human CD28 fused to the Fc portion of human IgG1) (human, UniProt P10747 19-152, biotin-conjugated (NHS-biotin) in the FACS binding assays); experiment: competitive FACS on transfected cells, biotin-sCD28-Ig with FITC-sCTLA-4-Ig; grade 0-2 of CD28/CTLA-4 ratio vs WT hB7-1
T1 construct: extracellular domain; bought from R&D Systems; also called sCD28-Ig; CD28-Ig Fc; not shown: Fc portion of human IgG1

[2] = biological target: T1, Soluble CD28-Ig (extracellular domain …); experiment: binding assay, data not shown
[3] = biological target: T2, Soluble CTLA-4-Ig (extracellular domain of human CTLA-4 fused to the Fc portion of human IgG1) (human, UniProt P16410 36-161, FITC-conjugated in the FACS binding assays); experiment: binding assay, data not shown
T2 construct: extracellular domain; bought from R&D Systems; also called sCTLA-4-Ig; CTLA-4-Ig Fc; not shown: Fc portion of human IgG1

[4] = biological target: T2, Soluble CTLA-4-Ig (extracellular domain …); experiment: flow cytometry of transfected cells, at least two experiments

T2 sequence (P16410 36-161): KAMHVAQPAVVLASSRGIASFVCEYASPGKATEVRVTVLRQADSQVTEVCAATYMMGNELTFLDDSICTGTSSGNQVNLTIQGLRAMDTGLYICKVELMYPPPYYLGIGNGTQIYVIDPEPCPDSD

Binder	Binding Score [1]	also measured
Round 2 CD28D11-1 (ligand) ITPKSVTKRVKETVMLSCDYNTSTEELTSLRIYWQKDSKMVLAILPGKVQVWPEYKNRTITDMNDNPRIVILALRLSDSGTYTCVVQKNENGSFRREHLTSVTLSIRADFPVPSITDIGHPAPNVKRIRCSASGDFPEPRLAWMEDGEELNAVNTTVDQDLDTELYSVSSELDFNVTNNHSIVCLIKYGELSVSQIFPWSKPKQEPPIDQLPFWVIILVSGALVLTAVVLYCLACRHVARWKRTRRNEETVGTERLSPIYLGSAQSSG	2	
Round 2 CD28C7-3 (ligand) ITPKSVTKRVKETVMLSCDYSTSTEELTSLRIYWQKDSKMVLAILPGKVQVWPEYKNRTITDMNDNPRIVILALRLSDSGTYTCVIQKPDLKGAYKLEHLTSVRLMIRADFPVPSITDIGHPAPNVKRIRCSASGDFPEPRLAWMEDGEELNAVNTTVDQDLDTELYSVSSELDFNVTNNHSIVCLIKYGELSVSQIFPWSKPKQEPPIDQLPFWVIIPVSGALVLTAVVLYCLACRHVARWKRTRRNEETVGTERLSPIYLGSAQSSG	1	
Round 2 CD28F10-2 (ligand) ITPKSVTKRVKETVMLSCDYNTSTEELTSLRIYWQKDSKMVLAILPGKVQVWPEYKNRTITDMNDNPRIVILALRLSDSGTYTCVIQKPDLKGAYKLEHLTSVRLMIRADFPVPSITDIGHPAPNVKRIRCSASGDFPEPRLAWMEDGEELNAVNTTVDQDLDTELYSVSSELDFNVTNNHSIVCLIKYGELSVSQIFPWSKPKQEPPIDQLPFWVIIPVSGALVLTAVVLYCLACRHVARWKRTRRNEETVGTERLSPIYLGSAQSSG	1	
Round 2 CD28D12-5 (ligand) ITPKSVTKRVKETVMLSCDYSTSTEELTSLRIYWQKDSKMVLAILPGKVQVWPEYKNRTITDMNDNPRIVILALRLSDSGTYTCVIQKPVLKGAYKLEHLASVRLMIRADFPVPSITDIGHPAPNVKRIRCSASGDFPEPRLAWMEDGEELNAVNTTVLDTELYSVSSELDFNVTNNHSIVCLIKYGELSVSQIFPWSKPKQEPPIDQLPFWVIIPVSGALVLTAVVLYCLACRHVARWKRTRRNEETVGTERLSPIYLGSAQPSG	2	
Round 2 CD28B6-6 (ligand) ITPKSVTKRVKETVMLSCDYSTSTEELTSLRIYWQKDSKMVLAILPGKVQVWPEYKNRTITDMNDNPRIVILALRLSDKGTYTCVIQKPVLKGAYKLEHLTSVTLSIRADFPVPSITDIGHPAPNVKRIRCSASGGFPEPRLAWMEDGEELNAVNTTVDQDLDTELYSVSSELDFNATNNHSIVCLIKYGELSVSQIFPWSKPKQEPPIDQLPFWVIVPVSGALVLTAVVLYCLACRHVAR	1	
Round 2 CD28B4-5* (ligand) SGITPKSVTKRVKETVMLSCDYNTSTEELTSLRIYWQKDSKMVLAILPGKVQVWPEYKNRTITDMNDNPRIVILALRLSDKGTYTCVVQKPDLKGAYKLEHLASVRLMIRADFPVPSITDIGHPAPNVKRIRCSASGGFPEPRLAWMEDGEELNAVNTTVDQDLDTELYSVSSELDFNVTNNHSIVCLIKYGELSVSQIFPWSKPKQEPPIDQLPFWVIIPVSGALVLTAVVLYCLACRHVARWKRTRRNEETVGTERLSPIYLGSAQSSG	0	
Round 2 CD28C2-4 (ligand) GISQVTKSVKEMAALSCDYNISIDELARMRIYWQKDQQMVLSIISGQVEVWPEYKNRTITDMNDNPRIVILALRLSDSGTYTCVIQKPVLKGAYKPEHLASVRLMIRADFPVPTINDLGNPSPNIRRLICSTSGGFPRPHLYWLENGEELNATNTTLSQDPETKLYMISSELDFNMTSNHSFLCLVKYGDLTVSQTFYWQESKPTPSANQHLTWTIIIPVSAFGISVIIAVILTCLTCRNAAIRRQRRENEVEMQSCSQSP	1	
Baboon B7-1 (ligand) VIHVTKEVKEVATLSCGHNVSVEELAQTRIYWQKEKKMVLTMMSGDMNIWPEYKNRTIFDITNNLSIVILALRPSDEGTYECVVLKYEKDAFKREHLAEVMLSVKADFPTPSITDFEIPPSNIRRIICSTSGGFPEPHLFWLENGEELNAINTTVSQDPGTELYTVSSKLDFNMTTNHSFVCLIKYGHLRVNQTFNWNTPKQEHFPDNLLPSWAITLISVNGIFVICCLTYCFAPRCRERRRNETLRRESVRPV		binding result [2]: binds; binding result [3]: binds
Orangutan B7-1 (ligand) VIHVTKEVKEVATLSCGHNVSVEELAQTRIYWQKEKKMVLTMMSGDMNIWPEYKNRTIFDITNNLSIVILALRPSDEGTYECVVLKYEKDAFKREHLAEVTLSVKADFPTPSISDFEIPTSNIRRMICSTSGGFPEPHLSWLENGEELNAISTTVSQDPETELYAVSSKLDFNMTTNHSFMCLIKYGHLRVNQTFNWNTPKQEHFPDNLLPSWAITLISVNGIFVICCLTYCFAPRCRERRSNERLRRESVRPV		binding result [2]: binds; binding result [3]: binds
Round 2 CD28A2-5 (ligand) ITPKSVTKRVKETVMLSCDYNTSTEELTSLRIYWQKDSKMVLAILPGKVQVWPEYKNRTITDMNDNPRIVILALRLSDSGTYTCVIQKPDLKGAYKLEHLASVRLMIRADFPVPSITDIGHPAPNVKRIRCSASGGFPEPRLAWMEDGEELNAVNTTVDQDLDTELYSVSSELDFNMTSNHSFLCLVKYGDLTVSQTFYWQESKPTPSANQHLTWTIIIPVSAFGISVIIAVILTCLTCRNAAIRRQRRENEGKCKVLSVSIGTKLKFNR	0	
Round 2 CD28D2-3 (ligand) ITPKSVTKRVKETVMLSCDYNTSTEELTSLRIYWQKDSKMVLAILPGKVQVWPEYKNRTITDMNDNPRIVIQALRLSDSGTYTCVIQKPVLKGAYKLEHLASVRLMIRADFPVPTDLGNPSPNIRRLICSTSGGFPRPHLYWLENGEELNATNTTVSQDPGTELYMISSELDFNVTNNHSIVCLIKYGELSVSQIFPWSKPKQEPPIDQLPFWVIIPVSGALVLTAVVLYCLACRHVARWKRTRRNEETVGTERLSPIYLGSAQSSG	1	

Further lines, with some results ahead:

Binding Score [1]	Binder	also measured
1	Round 2 CD28F12-5* (ligand) ITPKSVTKRVKETVMLSCDYNTSTEELTSLRIYWQKDSKMVLAILPGKVQVWPEYKNRTITDMNDNPRIVILALRLSDSGTYTCVIQKPDLKGAYKLEHLASVRLMIRADFPVPSITDIGHPAPNVKRIRCSASGDFPEPRLAWMEDGEELNAVNTTVDQDLDTELYSVSSELDFNVTNNHSIVCLIKYGELSVSQIFPWSKPKQEPPIDQLPFWVIIPVSGALVLTAVVLYCLACRHVARWKRTRRNEETVGTERLSPIYLGSAQSSG	
1	Round 2 CD28G1-9 (ligand) ITPKSVTKRVKETVMLSCDYNTSTEELTSLRIYWQKDSKMVLAILPGKVQVWPEYKNRTITDMNDNPRIVILALRLSDSGTYTCVIQKPVLKGAYKLEHLTSVRLMIRADFPVPSITDIGHPAPNVKRIRCSASGGFPEPRLAWMEDGEELNAVNTTVDQDLDTELYSVSSELDFNVTNNHSIVCLIKYGELSVSQIFPWSKPKQEPPIDQLPFWVIIPVSGALVLTAVVLYCLACRHVARWKRTRRNEETVGTERLSPIYLGSAQSSG	
1	Round 1 CD28BP-84 (ligand, also called R1clone 84; Clone 84) GISQVTKSVKEMAALSCDYNISIDELARMRIYWQKDQQMVLSIISGQVEVWPEYKNRTFPDIINNLSLMILALRLSDKGTYTCVVQKNENGSFRREHLTSVTLSIRADSPVPSITDIGHPAPNVKRIRCSASGGFPEPRLAWMEDGEELNAVNTTVDQDLDTELYSVSSELDFNVTNNHSIVCLIKYGELSVSQIFPWSKPKQEPPIDQLPFWVIIPVSGALVLTAVVLYCLACRHVARWKRTRRNEETVGTERLSPIYLGSAQSSG	binding result [4]: binds
1	Round 1 CD28BP-118 (ligand, also called R1clone 118; Clone 118) GISQVTKSVKEMAALSCDYNISIDELARMRIYWQKDQQMVLSIISGQVEVWPEYKNRTFPDIINNLSLMILALRLSDKGTYTCVVQKNENGSFRREHLTSVTLSIRADFPVPSITDIGHPAPNVKRIRCSASGDFPEPRLAWMEDGEELNAVNTTVDQDLDTELYSVSSELDFNVTNNHSIVCLIKYGELSVSQIFPWSKPKQEPPIDQLPFWVIIPVSGALVLTAVVLYCLACRHVARWKRTRRNEETVGTERLSPIYLGSAQSSG	binding result [4]: binds
1	Round 2 CD28H6-6 (ligand) ITPKSVTKRVKETVMLSCDYSTSTEELTSLRIYWQKDSKMVLAILPGKVQVWPEYKNRTITDMNDNPRIVILALRLSDSGTYTCVIQKPVLKGAYKLEHLASVRLMIRADFPVPTINDLGNPSPNIRRLICSGFPRPHLYWLENGEELNATNTTVSQDPGTELYMISSELDFNVTNNHSIVCLIKYGELSVSQIFPWSKPKQEPPIDQLPFWVIIPVSGALVLTAVVLYCLACRHVARWKRTRRNEETVGTERLSPIYLGSAQSSG	
0	Round 2 CD28F11-8 (ligand) ITPKSVTKRVKETVMLSCDYNTSTEELTSLRIYWQKDSKMVLAILPGKVQVWPEYKNRTITDMNDNPRIVILALRLSDSGTYTCVIQKPVLKGAYKLEHLTSVRLMIRADFPVPTINDLGNPSPNIRRLICSTSGGFPRPHLYWLENGEELNATNTTLSQDPETKLYMISSELDFNMTSNLCLVKYGDLTVSQTFYWQESKPTPSANQHLTWTIIIPVSAFGISVIIAVILTCLTCRNAAIRRQRRENEVEMQSCSQSP	
